Biological target: rat ANP receptor (NPR-A) (rat) (UniProt P18910)
Experiment: cell-based or functional assay

Sequence of rat ANP receptor (NPR-A) (rat) (P18910 29-1057): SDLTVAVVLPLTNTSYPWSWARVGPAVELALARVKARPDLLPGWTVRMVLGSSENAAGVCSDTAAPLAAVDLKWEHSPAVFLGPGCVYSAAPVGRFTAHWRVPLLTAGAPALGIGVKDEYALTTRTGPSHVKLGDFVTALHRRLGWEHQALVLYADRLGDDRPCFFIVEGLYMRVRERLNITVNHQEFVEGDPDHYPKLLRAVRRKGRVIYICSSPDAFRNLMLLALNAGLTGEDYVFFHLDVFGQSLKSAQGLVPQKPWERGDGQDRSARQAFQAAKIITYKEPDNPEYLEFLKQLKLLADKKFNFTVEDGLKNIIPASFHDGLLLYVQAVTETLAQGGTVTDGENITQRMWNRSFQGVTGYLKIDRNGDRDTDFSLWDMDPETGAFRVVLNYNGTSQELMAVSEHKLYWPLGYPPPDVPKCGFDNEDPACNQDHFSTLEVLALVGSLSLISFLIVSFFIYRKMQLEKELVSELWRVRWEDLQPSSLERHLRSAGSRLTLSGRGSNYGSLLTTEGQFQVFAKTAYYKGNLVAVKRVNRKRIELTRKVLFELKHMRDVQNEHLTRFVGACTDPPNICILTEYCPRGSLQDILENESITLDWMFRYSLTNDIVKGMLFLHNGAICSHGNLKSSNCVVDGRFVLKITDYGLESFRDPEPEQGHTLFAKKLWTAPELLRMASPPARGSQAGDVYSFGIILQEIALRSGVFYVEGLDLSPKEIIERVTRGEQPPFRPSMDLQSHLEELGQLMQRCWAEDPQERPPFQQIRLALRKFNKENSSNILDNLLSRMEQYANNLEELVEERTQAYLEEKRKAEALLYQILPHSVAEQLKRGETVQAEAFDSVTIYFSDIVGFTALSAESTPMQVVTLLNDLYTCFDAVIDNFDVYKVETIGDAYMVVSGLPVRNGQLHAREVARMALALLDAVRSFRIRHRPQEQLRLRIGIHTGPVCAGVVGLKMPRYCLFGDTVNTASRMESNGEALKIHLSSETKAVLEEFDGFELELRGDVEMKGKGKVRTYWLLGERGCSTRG

Substance: BNP (Bachem, H-5968) (peptide)
- EC50, fluorescence signal of rat NPR-A cGMP reporter CHO cell line (GCaMP6/CNGA2): 2.9 nM
